Results from publication PMC5097833 (Chemico-biological interactions, 2015).

B1: mouse anti-human BChE monoclonal antibody B2 12-1 (antibody, V domains shown)
VH: EVQLQQSGPELVKPGASVKISCKASGYTFTDYSMHWVKLSHGKSLEWIGYIYPYNDDTDYNQKFKTKATLTVDSSSSITYLELRSLTSEDSAVYYCARSDGYSYYFDYWGQGTTLTVSS
VL: DIVMTQSPATLSVTPGDRVSLSCRASQSISDYLHWYQQKSHESPRLLIKYASQSISGIPSRFSGGGSGSDFTLSINSVEPEDVGVYYCQNGHRFPLTFGAGTKLELK
B2: mouse anti-human BChE monoclonal antibody 11D8 (antibody, V domains shown)
VH: QVQLQQSGAELARPGASVKLSCKASGYTFTSQWLQWVKQRPGQGLEWIGAIYPGDGDTRYTQKFKGKATLTADKSSSTAYMQLTNLAPEDSAVYYCARSSMDYWGQGTSVTVSS
VL: DILLTQSPAILSVSPGERVRLSCRASQSCGTSIYWYQQRTNGSPRLLIMYASEPFSGIPSRFSGSGSGTDFTLSINSVESEDIADYYCQQSNSWPWTFGGGTRLEIK

Target: human butyrylcholinesterase (human (endogenous in plasma), UniProt P06276)
Sequence (P06276 29-602): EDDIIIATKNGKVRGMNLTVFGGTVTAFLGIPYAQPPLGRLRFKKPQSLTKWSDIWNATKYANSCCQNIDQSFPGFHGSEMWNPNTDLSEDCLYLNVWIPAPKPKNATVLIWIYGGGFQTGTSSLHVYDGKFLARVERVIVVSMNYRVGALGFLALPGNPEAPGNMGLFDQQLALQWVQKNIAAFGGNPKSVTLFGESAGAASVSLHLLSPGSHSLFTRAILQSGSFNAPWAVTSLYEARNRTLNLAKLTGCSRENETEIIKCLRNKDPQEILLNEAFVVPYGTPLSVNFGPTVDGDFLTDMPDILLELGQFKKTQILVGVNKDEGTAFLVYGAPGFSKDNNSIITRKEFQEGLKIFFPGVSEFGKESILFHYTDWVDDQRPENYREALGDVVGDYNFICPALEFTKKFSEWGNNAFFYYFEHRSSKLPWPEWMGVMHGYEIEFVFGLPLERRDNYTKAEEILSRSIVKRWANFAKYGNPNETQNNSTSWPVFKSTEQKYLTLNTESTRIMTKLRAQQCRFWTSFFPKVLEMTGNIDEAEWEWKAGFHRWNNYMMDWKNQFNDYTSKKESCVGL
Assay: pull-down

Row | Binder | binding result
1 | B1 | binds
2 | B2 | binds
